Paper PMC7192620

T1: RBM3 (UniProt P98179 1-157)
T1 sequence: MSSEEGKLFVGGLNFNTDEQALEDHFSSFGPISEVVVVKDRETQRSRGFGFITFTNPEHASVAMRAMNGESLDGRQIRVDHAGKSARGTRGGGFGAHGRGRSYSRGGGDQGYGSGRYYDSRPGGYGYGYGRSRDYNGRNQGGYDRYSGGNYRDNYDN


How the values were obtained:
[1] = biological target: YBX1 (YB-1) (UniProt P67809 1-324); assay: ELONA titration
[2] = biological target: T1, RBM3; assay: ELONA titration

Chain of YBX1 (YB-1) (P67809 whole entry): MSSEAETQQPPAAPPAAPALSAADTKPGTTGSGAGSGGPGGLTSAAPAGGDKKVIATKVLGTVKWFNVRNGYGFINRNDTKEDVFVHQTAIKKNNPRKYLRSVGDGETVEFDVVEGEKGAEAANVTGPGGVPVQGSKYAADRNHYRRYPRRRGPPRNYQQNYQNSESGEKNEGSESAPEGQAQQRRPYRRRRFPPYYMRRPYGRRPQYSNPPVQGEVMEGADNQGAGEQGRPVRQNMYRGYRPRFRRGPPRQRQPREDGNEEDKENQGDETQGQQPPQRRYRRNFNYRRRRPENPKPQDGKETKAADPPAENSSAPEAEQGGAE

Binder | Kd [1] [nM] | binding result [2]
Sequence 7 (ssDNA, 5' biotin (5Biosg)) DNA: CTAGCATGACTGCAGTACGTTACTTAATTGGGGGGGGGGATTCTGTTTTGTCTCTCTGTCTCTTATACACATCTGACGCTGCCGACGA | ~3 | 
Sequence 7 RC (ssDNA, 5' biotin (5Biosg)) DNA: TCGTCGGCAGCGTCAGATGTGTATAAGAGACAGAGAGACAAAACAGAATCCCCCCCCCCAATTAAGTAACGTACTGCAGTCATGCTAG |  | no binding
